In publication PMC3620356:

Key:
[1] = molecular target: mature NIH45-46 IgG (human); assay: BLI
[2] = molecular target: 426c Env trimeric gp140 (wild type) (HIV-1 clade C, isolate 426c (HVTN503 participant)) (UniProt M4Q8P8); assay: BLI

Row | Kd [2] [nM] | Substance | Kd [1] [nM]
1 | – | 426c Env trimeric gp140 lacking the NLGS at position 276 (N276D) (natural protein) | 3.66
2 | 10.6 | mature NIH45-46 IgG (antibody) | –
